These results are taken from publication PMC4008574 (PLoS ONE, 2014).

Ends that are not written are not given here.

Assay [1] has as its target Integrin αvβ3 (Homo sapiens) (UniProt P06756). As to conditions: cited from earlier work.
The target in assay [2] is T1, chemokine domain of fractalkine (FKN-CD), wild type (UniProt P78423 25-100).
T1 construct: fractalkine (CX3CL1), N-terminal chemokine domain, printed as residues 1-76; The limits 1-76 are printed for the chemokine domain in general (introduction); also called WT FKN-CD; CX3CL1
T1 sequence (looked up): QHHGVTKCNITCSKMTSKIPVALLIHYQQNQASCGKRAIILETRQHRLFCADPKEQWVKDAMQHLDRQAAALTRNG
The assay is described as follows: ELISA; FKN-CD, γC399tr, FN-H120 or FN8-11 coated on wells (5 µM in Figure 4d; GST removed from FN-H120 and FN8-11); GST-tagged S2 peptides added in PBS, 2 h at room temperature; detected with HRP-conjugated anti-GST antibody. The following applies: both partners purified.

Sequence of Integrin αvβ3 (Homo sapiens) (P06756 31-992, chain 1 of 2): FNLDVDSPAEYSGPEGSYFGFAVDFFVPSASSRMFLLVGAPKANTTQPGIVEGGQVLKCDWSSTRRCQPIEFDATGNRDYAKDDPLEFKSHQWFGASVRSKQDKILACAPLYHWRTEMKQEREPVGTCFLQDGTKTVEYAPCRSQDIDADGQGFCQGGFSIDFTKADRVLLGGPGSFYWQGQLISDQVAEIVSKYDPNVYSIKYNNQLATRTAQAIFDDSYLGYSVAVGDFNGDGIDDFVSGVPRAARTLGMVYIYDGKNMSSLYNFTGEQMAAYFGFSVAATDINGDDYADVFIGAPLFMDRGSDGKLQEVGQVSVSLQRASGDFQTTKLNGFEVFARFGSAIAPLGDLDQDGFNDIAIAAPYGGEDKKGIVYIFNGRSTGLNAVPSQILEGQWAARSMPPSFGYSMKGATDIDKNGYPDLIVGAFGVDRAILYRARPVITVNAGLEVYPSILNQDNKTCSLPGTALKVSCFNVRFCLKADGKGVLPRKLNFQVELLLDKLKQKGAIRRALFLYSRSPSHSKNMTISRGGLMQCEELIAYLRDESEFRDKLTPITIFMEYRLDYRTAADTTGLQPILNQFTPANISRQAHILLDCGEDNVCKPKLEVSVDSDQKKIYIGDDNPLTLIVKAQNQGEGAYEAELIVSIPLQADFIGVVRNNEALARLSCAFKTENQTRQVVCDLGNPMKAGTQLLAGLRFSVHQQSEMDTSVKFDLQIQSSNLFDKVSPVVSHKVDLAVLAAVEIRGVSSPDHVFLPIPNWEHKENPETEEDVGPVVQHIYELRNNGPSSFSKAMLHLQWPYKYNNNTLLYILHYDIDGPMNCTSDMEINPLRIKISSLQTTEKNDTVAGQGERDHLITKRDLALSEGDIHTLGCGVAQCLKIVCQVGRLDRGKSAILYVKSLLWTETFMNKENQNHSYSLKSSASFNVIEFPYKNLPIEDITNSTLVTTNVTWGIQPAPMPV
Sequence of Integrin αvβ3 (Homo sapiens) (P05106 27-718, chain 2 of 2, further chain): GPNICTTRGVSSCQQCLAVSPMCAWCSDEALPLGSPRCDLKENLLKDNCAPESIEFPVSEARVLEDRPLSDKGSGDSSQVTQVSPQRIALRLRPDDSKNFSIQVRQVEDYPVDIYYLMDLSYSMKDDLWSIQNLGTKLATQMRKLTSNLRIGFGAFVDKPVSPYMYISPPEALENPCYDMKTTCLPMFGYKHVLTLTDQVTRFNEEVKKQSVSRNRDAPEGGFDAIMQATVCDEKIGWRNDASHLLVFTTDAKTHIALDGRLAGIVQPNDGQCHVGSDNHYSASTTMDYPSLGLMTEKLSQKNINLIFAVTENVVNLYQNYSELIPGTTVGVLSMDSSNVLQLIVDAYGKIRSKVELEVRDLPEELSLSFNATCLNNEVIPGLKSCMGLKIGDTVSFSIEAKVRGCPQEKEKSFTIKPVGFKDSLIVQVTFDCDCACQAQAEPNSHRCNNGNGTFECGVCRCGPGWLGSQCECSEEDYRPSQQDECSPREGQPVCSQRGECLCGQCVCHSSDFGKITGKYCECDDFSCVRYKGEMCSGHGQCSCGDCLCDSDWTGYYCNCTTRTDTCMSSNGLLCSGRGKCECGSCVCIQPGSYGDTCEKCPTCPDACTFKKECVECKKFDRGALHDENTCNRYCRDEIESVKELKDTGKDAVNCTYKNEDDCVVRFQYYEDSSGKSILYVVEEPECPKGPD

Turning to “Fractalkine chemokine domain (from UniProt P78423)”, the Kd in assay [1] was 300 pM.

B1: GST fusion protein of site 2 peptide of integrin β3 (S2-β3 peptide) (peptide)
chain: QPNDGQSHVGSDNHYSASTTM
modifications: also: GST fusion protein
notes: The 6His tag was put into the BamHI site of pGEX-2T and the peptide's oligonucleotides into the BamHI/EcoRI site of the resulting vector; also called S2 peptide
B1: in assay [2], the binding result is “binds”.
